One block for each binder: values may come before it.
What was measured:
[1] = biological target: T1, human FcγRIIB (NM_004001) (human, UniProt P31994 43-310); assay: flow cytometry on Expi293F cells transfected with FcγRIIB
T1 construct: also called FcγRIIB expressed on transfected Expi293F cells
T1 sequence: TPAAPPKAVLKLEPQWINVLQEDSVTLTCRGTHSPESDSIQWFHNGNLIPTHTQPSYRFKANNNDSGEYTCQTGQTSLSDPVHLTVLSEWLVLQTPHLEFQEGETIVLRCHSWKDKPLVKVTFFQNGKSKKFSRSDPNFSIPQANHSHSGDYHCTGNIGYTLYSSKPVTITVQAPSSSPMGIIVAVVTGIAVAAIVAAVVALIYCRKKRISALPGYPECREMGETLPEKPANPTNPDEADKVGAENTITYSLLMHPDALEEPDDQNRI
Protocol: (§1) Plasmids expressing cDNAs encoding human FcγRI (NM_000566) (SEQ ID NO: 59), FcγRIIA (NM_021642) (SEQ ID NO: 60), FcγRIIB (NM_004001) (SEQ ID NO: 61), and FcγRIIIA (NM_000569) (SEQ ID NO: 62) (Origene) were transiently transfected into Expi293F cells by Expifectmine293 transfection kit (Life Technologies). Flow cytometry assays were performed 48 h after transfection.
(§2) 2×10⁵ cells per well were seeded in 96-well plate and blocked in BSA Stain Buffer (BD Biosciences, San Jose, USA) for 30 min at 4° C. Cells were incubated with test antibody on ice for 1.5 hour at 4° C. After being washed twice with BSA stain buffer, the cells were incubated with R-PE labeled anti-human or anti-mouse IgG secondary antibody (Jackson Immunoresearch Laboratories) for 45 min at 4° C. The cells were washed twice in stain buffer and then resuspended in 150 μL of Stain Buffer containing 1:200 diluted DRAQ7 live/dead stain (Cell Signaling Technology, Danvers, USA). PE and DRAQ7 signals of the stained cells were detected by Miltenyi MACSQuant flow cytometer (Miltenyi Biotec, Auburn, USA) using B2 and B4 channel respectively. Live cells were gated on DRAQ7 exclusion and the geometric mean fluorescence signals were determined for at least 10,000 live events collected. FlowJo software (Tree Star) was used for analysis. Data was plotted as the logarithm of antibody concentration versus mean fluorescence signals. Nonlinear regression analysis was performed by GraphPad Prism 6 (GraphPad Software, Inc.) and EC₅₀ values were calculated.

human OX40 (CD134) = biological target: T2, human OX40 (CD134) (human, UniProt P43489 29-277); assay: NanoBRET PPI assay on HEK-Blue: OX40 cells (discussion)
T2 construct: also called HEK-Blue: OX40 cells; transfected OX40 receptor
T2 sequence: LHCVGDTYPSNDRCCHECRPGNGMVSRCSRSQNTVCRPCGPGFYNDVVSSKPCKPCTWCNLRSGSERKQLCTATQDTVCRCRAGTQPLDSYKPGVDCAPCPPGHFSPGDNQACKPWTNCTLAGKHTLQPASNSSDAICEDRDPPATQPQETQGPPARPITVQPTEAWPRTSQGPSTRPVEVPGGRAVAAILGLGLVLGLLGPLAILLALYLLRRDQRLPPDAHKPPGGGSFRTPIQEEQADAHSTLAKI
Protocol: The next day, equal concentrations of Nanoluc-tagged antibody (donor) and Halotag-tagged antibody (acceptor) in 50 μl assay medium (Opti-MEM I reduced serum medium, no phenol red plus 4% FBS) were applied to the cells. Halotag 618 ligand diluted 1:1000 in 50 μl assay medium were added in experimental well, and a no ligand control well was also set up by diluting DMSO 1:1000 in assay medium. After incubation at 37° C. for 30 min, the cells were washed twice with assay medium and resuspended in 100 μl assay medium. 25 μl Nano-Glo substrate, diluted 1:200 in assay medium without FBS, was added to each well. After shaking for 30 seconds, the donor emission (460 nm) and acceptor emission (618 nm) were measured by Envision. Raw NanoBRET ratio values with milliBRET units (mBU) were calculated as RawBRET=618 nmEm/460 nmEm*1000. To factor in donor-contributed background or bleed through, Corrected NanoBRET ratio values with milliBRET units was calculated as CorrectedBRET=RawBRETₑₓₚₑᵣᵢₘₑₙₜₐₗ sample−RawBRET_{no-ligand control sample}, which reflects energy transfer from a bioluminescent protein donor to a fluorescent protein acceptor due to protein-protein interactions.
To evaluate whether the engineered antibodies multimerize upon binding antigens at the cell surface a NanoBRET™ protein-protein interaction (PPI) assay was conducted. This assay is a proximity-based assay that detects protein-protein interactions by measuring energy transfer from a bioluminescent protein donor to a fluorescent protein acceptor. […] NanoBRET PPI assays were performed by applying the donor and acceptor antibodies to HEK-Blue: OX40 cells and the calculated corrected NanoBRET ratios reflect the association of multimerized antibody.

human FcγRI (NM_000566) = human FcγRI (NM_000566) (human, UniProt P12314 16-374); assay: flow cytometry on Expi293F cells transfected with FcγRI
Protocol: as §1
as §2, with “The cells were washed twice in stain buffer and then resuspended in 150 μL of Stain Buffer containing 1:200 diluted DRAQ7 live/dead stain (Cell Signaling Technology, Danvers, USA).” left out, “FlowJo software (Tree Star) was used for analysis.” left out

[2] = biological target: human FcγRIIIA (NM_000569) (human, UniProt P08637 17-254); assay: flow cytometry on Expi293F cells transfected with FcγRIIIA
Protocol: as §1, §2

[3] = biological target: the molecule itself; assay: SEC, self-association in solution
FcγRIIB on Raji cells = biological target: T3, FcγRIIB on Raji cells (human, UniProt P31994 43-310); assay: cell-based or functional assay
T3 sequence (looked up): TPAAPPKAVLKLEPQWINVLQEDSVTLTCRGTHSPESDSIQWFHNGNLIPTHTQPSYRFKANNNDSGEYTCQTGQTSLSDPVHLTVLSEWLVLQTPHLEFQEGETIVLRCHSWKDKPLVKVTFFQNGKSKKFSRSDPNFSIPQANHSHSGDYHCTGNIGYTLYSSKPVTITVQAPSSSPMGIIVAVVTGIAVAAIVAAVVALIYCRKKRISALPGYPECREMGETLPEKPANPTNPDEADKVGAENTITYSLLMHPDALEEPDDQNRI

[4] = biological target: T4, human FcγRIIA (NM_021642) (human, UniProt P12318 36-317); assay: flow cytometry on Expi293F cells transfected with FcγRIIA (R131 allotype per text)
T4 construct: also called FcγRIIA^R131; R131 allotype of FcγRIIA
T4 sequence: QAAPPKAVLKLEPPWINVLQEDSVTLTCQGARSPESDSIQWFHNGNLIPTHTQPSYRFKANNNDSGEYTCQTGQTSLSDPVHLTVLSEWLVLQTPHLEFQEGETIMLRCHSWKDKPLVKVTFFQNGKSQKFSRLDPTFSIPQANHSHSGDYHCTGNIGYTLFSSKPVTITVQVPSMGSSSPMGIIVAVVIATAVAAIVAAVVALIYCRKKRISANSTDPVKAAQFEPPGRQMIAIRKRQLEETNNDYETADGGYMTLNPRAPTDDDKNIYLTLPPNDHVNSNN
Protocol: as §1
as §2, with “The cells were washed twice in stain buffer and then resuspended in 150 μL of Stain Buffer containing 1:200 diluted DRAQ7 live/dead stain (Cell Signaling Technology, Danvers, USA).” left out, “FlowJo software (Tree Star) was used for analysis.” left out

[5] = biological target: T1, human FcγRIIB (NM_004001); assay: binding to transfected Expi293F cells (data not shown)

Sequence of human FcγRIIIA (NM_000569) (P08637 17-254 limits assumed): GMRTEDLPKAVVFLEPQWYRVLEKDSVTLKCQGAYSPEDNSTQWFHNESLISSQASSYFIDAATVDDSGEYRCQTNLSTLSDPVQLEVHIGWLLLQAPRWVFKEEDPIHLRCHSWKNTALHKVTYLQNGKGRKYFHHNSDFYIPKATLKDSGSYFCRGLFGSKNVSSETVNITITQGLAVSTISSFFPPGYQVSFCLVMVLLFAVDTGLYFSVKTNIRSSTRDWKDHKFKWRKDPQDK
Sequence of human FcγRI (NM_000566) (P12314 16-374 limits assumed): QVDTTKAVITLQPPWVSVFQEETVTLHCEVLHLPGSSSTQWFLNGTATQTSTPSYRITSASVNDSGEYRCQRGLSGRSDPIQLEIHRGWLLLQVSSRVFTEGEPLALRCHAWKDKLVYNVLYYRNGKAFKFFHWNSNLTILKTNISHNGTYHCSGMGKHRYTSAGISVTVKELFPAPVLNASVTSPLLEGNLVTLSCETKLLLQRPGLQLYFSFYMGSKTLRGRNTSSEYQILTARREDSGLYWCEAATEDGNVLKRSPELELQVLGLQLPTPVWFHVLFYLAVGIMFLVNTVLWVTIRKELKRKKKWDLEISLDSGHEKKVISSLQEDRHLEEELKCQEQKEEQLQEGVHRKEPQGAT

B1: anti-FcγRIIB antibody 2B6 (antibody)
chain 1: QVQLQQPVTELVRPGASVMLSCKASDYPFTNYWIHWVKQRPGQGLEWIGVIDPSDTYPNYNKKFKGKATLTVVVSSSTAYMQLSSLTSDDSAVYYCARNGDSDYYSGMDYWGQGTSVTVSS
chain 2: DILLTQSPAILSVSPGERVSFSCRTSQSIGTNIHWYQQRTNGFPRLLIKNVSESISGIPSRFSGSGSGTDFILSINSVESEDIADYYCQQSNTWPFTFGGGTKLEIK
EC50 [1]: 0.431 µg/mL

B2: OX40SF2IgG1E345R/E430G (antibody)
heavy: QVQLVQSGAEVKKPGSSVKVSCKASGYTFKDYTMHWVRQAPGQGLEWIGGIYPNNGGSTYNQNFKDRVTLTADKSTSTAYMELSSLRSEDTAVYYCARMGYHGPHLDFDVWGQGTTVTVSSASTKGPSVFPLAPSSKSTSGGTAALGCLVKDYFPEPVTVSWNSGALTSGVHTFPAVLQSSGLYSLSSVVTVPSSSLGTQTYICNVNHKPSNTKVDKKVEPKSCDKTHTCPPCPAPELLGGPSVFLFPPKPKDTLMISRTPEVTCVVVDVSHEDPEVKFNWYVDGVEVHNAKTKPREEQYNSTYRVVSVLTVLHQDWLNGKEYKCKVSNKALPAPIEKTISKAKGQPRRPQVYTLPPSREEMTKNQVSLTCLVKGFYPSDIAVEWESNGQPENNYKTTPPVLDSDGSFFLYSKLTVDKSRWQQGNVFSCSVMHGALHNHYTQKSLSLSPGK
VL: DIQMTQSPSSLSASVGDRVTITCKASQDVGAAVAWYQQKPGKAPKLLIYWASTRHTGVPSRFSGSGSGTDFTLTISSLQPEDFATYYCQQYINYPLTFGGGTKVEIK
notes: Full IgG1; In the NanoBRET assay the light chains carried a C-terminal Nanoluc or HaloTag
binding result (human OX40 (CD134)): binds

B3: OX40SF2IgG1 (antibody)
heavy: not shown
VL: DIQMTQSPSSLSASVGDRVTITCKASQDVGAAVAWYQQKPGKAPKLLIYWASTRHTGVPSRFSGSGSGTDFTLTISSLQPEDFATYYCQQYINYPLTFGGGTKVEIK
notes: Full IgG1, wild-type Fc; also called SF2 antibody with native human IgG1 Fc; wild-type IgG1
EC50 (human FcγRI (NM_000566)): 0.326 µg/mL | EC50 [2]: 0.744 µg/mL | binding result [3]: no binding

B4: OX40SF2IgG1S267E/L328F (antibody, name in EU numbering)
heavy: not shown
VL: DIQMTQSPSSLSASVGDRVTITCKASQDVGAAVAWYQQKPGKAPKLLIYWASTRHTGVPSRFSGSGSGTDFTLTISSLQPEDFATYYCQQYINYPLTFGGGTKVEIK
notes: Full IgG1; Positions are EU Index, not positions on the UniProt entry
HEK-Blue NFκB reporter assay, co-culture with Raji cells; efficacy at 1000 ng/ml against OX40 ligand at the same concentration (FcγRIIB on Raji cells): > 2 fold | EC50 [4]: 0.216 µg/mL | fold better potency (against OX40SF2IgG1, reference implied) [4]: 20 fold | binding result [2]: no binding (tested: 1 ng/ml to 10000 ng/ml) | EC50 [1]: 0.459 µg/mL

B6: OX40SF2IgG1V12 (antibody, name in EU numbering)
heavy: QVQLVQSGAEVKKPGSSVKVSCKASGYTFKDYTMHWVRQAPGQGLEWIGGIYPNNGGSTYNQNFKDRVTLTADKSTSTAYMELSSLRSEDTAVYYCARMGYHGPHLDFDVWGQGTTVTVSSASTKGPSVFPLAPSSKSTSGGTAALGCLVKDYFPEPVTVSWNSGALTSGVHTFPAVLQSSGLYSLSSVVTVPSSSLGTQTYICNVNHKPSNTKVDKKVEPKSCDKTHTCPPCPAPDLLGDDSVFLFPPKPKDTLMISRTPEVTCVVVDVSDEDGEVKFNWYVDGVEVHNAKTKPREEQYNSTYRVVSVLTVLHQDWLNGKEYKCKVSNKALPRPIEKTISKAKGQPREPQVYTLPPSRDELTKNQVSLTCLVKGFYPSDIAVEWESNGQPENNYKTTPPVLDSDGSFFLYSKLTVDKSRWQQGNVFSCSVMHEALHNHYTQKSLSLSPGK
VL: DIQMTQSPSSLSASVGDRVTITCKASQDVGAAVAWYQQKPGKAPKLLIYWASTRHTGVPSRFSGSGSGTDFTLTISSLQPEDFATYYCQQYINYPLTFGGGTKVEIK
notes: Full IgG1; Positions are EU Index
HEK-Blue NFκB reporter assay, co-culture with Raji cells; efficacy at 1000 ng/ml against OX40 ligand at the same concentration (FcγRIIB on Raji cells): > 2 fold | binding result [2]: no binding (tested: 1 ng/ml to 10000 ng/ml) | EC50 [1]: 0.502 µg/mL

Continued, in another order:

binding result [5]: binds
B5: OX40SF2IgG1E345R/E430G/S440Y (antibody)
heavy: QVQLVQSGAEVKKPGSSVKVSCKASGYTFKDYTMHWVRQAPGQGLEWIGGIYPNNGGSTYNQNFKDRVTLTADKSTSTAYMELSSLRSEDTAVYYCARMGYHGPHLDFDVWGQGTTVTVSSASTKGPSVFPLAPSSKSTSGGTAALGCLVKDYFPEPVTVSWNSGALTSGVHTFPAVLQSSGLYSLSSVVTVPSSSLGTQTYICNVNHKPSNTKVDKKVEPKSCDKTHTCPPCPAPELLGGPSVFLFPPKPKDTLMISRTPEVTCVVVDVSHEDPEVKFNWYVDGVEVHNAKTKPREEQYNSTYRVVSVLTVLHQDWLNGKEYKCKVSNKALPAPIEKTISKAKGQPRRPQVYTLPPSREEMTKNQVSLTCLVKGFYPSDIAVEWESNGQPENNYKTTPPVLDSDGSFFLYSKLTVDKSRWQQGNVFSCSVMHGALHNHYTQKYLSLSPGK
VL: DIQMTQSPSSLSASVGDRVTITCKASQDVGAAVAWYQQKPGKAPKLLIYWASTRHTGVPSRFSGSGSGTDFTLTISSLQPEDFATYYCQQYINYPLTFGGGTKVEIK
notes: In the NanoBRET assay the light chains carried a C-terminal Nanoluc or HaloTag; also called OX40SF2E345R/E430G/S440Y
binding result [3]: binds

binding result (human OX40 (CD134)): binds
B7: OX40SF2IgG1E430G (antibody)
heavy: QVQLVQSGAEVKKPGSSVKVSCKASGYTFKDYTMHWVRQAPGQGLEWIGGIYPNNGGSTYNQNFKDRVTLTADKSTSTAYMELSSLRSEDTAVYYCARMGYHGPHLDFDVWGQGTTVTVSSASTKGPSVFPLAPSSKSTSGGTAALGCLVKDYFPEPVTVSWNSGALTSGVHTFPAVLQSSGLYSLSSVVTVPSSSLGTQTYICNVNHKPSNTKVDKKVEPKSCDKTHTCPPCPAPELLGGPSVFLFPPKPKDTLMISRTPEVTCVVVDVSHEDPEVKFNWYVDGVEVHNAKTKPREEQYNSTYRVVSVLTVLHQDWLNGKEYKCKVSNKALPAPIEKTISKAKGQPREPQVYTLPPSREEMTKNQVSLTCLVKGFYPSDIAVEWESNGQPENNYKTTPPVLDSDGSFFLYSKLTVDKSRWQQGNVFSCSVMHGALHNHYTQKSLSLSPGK
VL: DIQMTQSPSSLSASVGDRVTITCKASQDVGAAVAWYQQKPGKAPKLLIYWASTRHTGVPSRFSGSGSGTDFTLTISSLQPEDFATYYCQQYINYPLTFGGGTKVEIK
notes: as for B2

HEK-Blue NFκB reporter assay, co-culture with Raji cells against no Raji cells (FcγRIIB on Raji cells): > 2 fold | binding result (human OX40 (CD134)): binds
B8: OX40SF2IgG1E345R (antibody)
heavy: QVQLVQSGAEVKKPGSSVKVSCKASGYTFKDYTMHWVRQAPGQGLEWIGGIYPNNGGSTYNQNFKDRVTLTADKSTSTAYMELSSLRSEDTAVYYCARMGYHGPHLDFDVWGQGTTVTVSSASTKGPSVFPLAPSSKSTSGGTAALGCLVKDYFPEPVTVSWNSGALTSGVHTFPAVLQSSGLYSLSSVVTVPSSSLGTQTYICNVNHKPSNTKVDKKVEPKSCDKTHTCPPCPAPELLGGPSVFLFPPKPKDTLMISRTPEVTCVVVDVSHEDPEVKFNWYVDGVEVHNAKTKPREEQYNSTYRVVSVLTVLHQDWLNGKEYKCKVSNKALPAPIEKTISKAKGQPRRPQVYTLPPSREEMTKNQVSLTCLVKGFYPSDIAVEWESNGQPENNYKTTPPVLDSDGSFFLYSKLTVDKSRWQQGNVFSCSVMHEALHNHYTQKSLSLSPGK
VL: DIQMTQSPSSLSASVGDRVTITCKASQDVGAAVAWYQQKPGKAPKLLIYWASTRHTGVPSRFSGSGSGTDFTLTISSLQPEDFATYYCQQYINYPLTFGGGTKVEIK
notes: as for B2

— patent US20200231693A1 (Janssen / Centocor, published 2020)
